Source: patent publication US20170226511, “[…] FOR BINDING […] PROTEINS” (National University of Singapore, published 2017)

B1: BN-B03-DNA unmodified (ssDNA)
DNA: GAAGGTGAAGGTCGGCTGAAGCATTAGACCTAAGCACGCTGCCACAAGTCCTGGTTCCCTGGCTTAGGTCTAATGCACCATCATCACCATCTTC
B2: BN-B99-DNA unmodified (ssDNA)
DNA: GAAGGTGAAGGTCGGCTGAAGCATCAGACCTAAGCCCAAATTGCCGCAGACTCGTTGTGAAGCTTAGGTCTAATGCACCATCATCACCATCTTC

Target: West Nile virus envelope protein domain III (WNDIII, WNE-rDIII) (West Nile virus strain Wengler, UniProt P06935 P06935:582-692)
Sequence (P06935 582-692, one chain of several): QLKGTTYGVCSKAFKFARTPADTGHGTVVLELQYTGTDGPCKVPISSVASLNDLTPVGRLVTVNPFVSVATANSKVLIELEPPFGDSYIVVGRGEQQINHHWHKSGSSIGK
Test: ELONA; unmodified DNA unable to bind
Conditions: tags: 6xHis; with or without biotin acceptor peptide (BAP); label: 5' biotin

Row | Binder | binding result
1 | B1 | no binding
2 | B2 | no binding
